From the supplement of paper PMC9170038

System: K4 kissing-loop RNA reporter
Experiment: apparent KD of K4 kissing-loop reporter; higher = weaker reporter binding
Settings: Eterna round: R107
Procedure: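 RNA-MaP round R107: designed RNA switches with theophylline, tryptophan, arginine or FMN aptamers are transcribed on-chip within common flanks. They are titrated with a labelled K4 kissing-loop RNA reporter in RNA-MaP buffer (100 mM Tris pH 7.5, 80 mM KCl, 4 mM MgCl2), without ligand or with the indicated ligand. Median apparent KD per design.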

[1] = input ligand: theophylline 20 uM
[2] = input ligand: tryptophan 2.4 mM
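Also: bound reporter read as fluorescence of individual clusters on recovered sequencing chips by microscopy, with normalized cluster intensities fitted with a binding model.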

Row | Sequence | apparent KD of K4 kissing-loop reporter (input ligand: FMN 200 uM) [nM] | apparent KD of K4 kissing-loop reporter (input ligand: arginine 13.2 mM) [nM] | apparent KD of K4 kissing-loop reporter (input ligand: none) [nM] | apparent KD of K4 kissing-loop reporter [1] [nM] | apparent KD of K4 kissing-loop reporter [2] [nM]
1 | CUCAAACCGUGGGCAUUUCGCAAAGUAGAUACCAGUCGCAACGGUGACCCUUGGCAGCUAGUAAAGUGAUGUUUUAUCGGCACCA [theeternabot_exclusion_KL_Theo_A_35] | 78.4 | 80.4 | 78 | 78.6 | 69.1
2 | AGGUGAGAGUGAAGGAGCGAUCGCGCCAGUGAUGUUGGUGAGCAUGACGAAAGUCAUGCCGAUCAGGUAGGUCGCACUCUUACUC [Omei KL Arginine B SS B v3] | 700 | 421 | 663 | 547 | 798
3 | GCAGGAUGAGGAGGAGGAUGAAUUACUGAAGGAGCGCAUAUUUUUGCAGGUAGGUCGCGGUAAAGAAGUAUAGUGAUGUUAUAUA [SSArgA.K] | 333 | 255 | 267 | 568 | 456
4 | UUGGUCUUUUAAGGAUAUCAUACUCCACUGAGCGAGUGAUGUUCGCUCCUGUUACGCCUGGGACCGUGAGAAGGUAAAGUACCGU [theeternabot_sameState_KL_FMN_B_5] | 149 | 138 | 163 | 147 | 137
5 | GCCGUAGAUUGAAGGAGCGGGCCGUAGUGAUGUUACGCCAAAUUAUCCUUUCUUGAGGUGGUCCAGGUAGGUCGCAAUCUACGGC | 168 | 144 | 148 | 109 | 118
6 | UGACUACAAAAGGAAUAAUCCUAGUGAUGUUAGGAUAUGCUGAUAAGCAGAAGGAACUGAGAUCGAAAGAUCUCAAAUGUAGUCU [FmnAX 25 Mat Inspired #SwitchBubble #StaticStem #K4Early] | 116 | 89.1 | 92.3 | 103 | 93
7 | UGACUGGAUGGAAGGAGCGCUAAACUCCUAGUGAUGUUAGGGACACGAGACAAAGUCUCGAAGCAGGUAGGUCGCCAUCUAGUCU [FiskerMod 13 - Jieux - Same State - Arginine B] | 219 | 156 | 160 | 352 | 166
8 | GGAUAGGACAGAGGAUAUCCUUGAGGCAAGAAACUUGUCUCUAAAAGGAUGAACCUAGUGAUGUUAGGAGAAGGCUGUCCUAUCG [FmnBX 13 - #SwitchBubble #StaticStem #Palindromic] | 132 | 90 | 98.2 | 85 | 95.9
9 | UUUAUAAUGUCGGCCGCCACUGGAUUAAUAUUUGUAUAAUCUAGUUCAAAGUGAUGUUUUGAGUCCAGGACCGGGACAUUUGUUA [JR_ExcTryptoB_Sub003] | 570 | 490 | 582 | 509 | 407
10 | AAAGUGUCAGCACGAGUGAUGUUCGACGAUACCAGCCUCGAUAGAGGCCCUUGGCAGCGUAAACCAAGGGCUGGCACAAAAUAAA [#SwitchBubble 6 #K4Early] | 1050 | 975 | 1350 | 439 | 1360
11 | UUGUUUGGUUGAGAGGUUGGGCGAGAUGAUACCAGUAGAGAAGAGUACCCUUGGCAGCAUAGGAGAGAUAUAGUGAUGUUGUAUA [SSTheophA.R] | 487 | 424 | 420 | 525 | 402
12 | UGAACCGCCCAGUGAUGUUGGGCCAUAGAUACCAGCCUCUCCGACGGCCCUUGGCAGCUAGGGCCCGGCAGGUAGGAGACUCUGC [Orarzasove] | 199 | 220 | 272 | 239 | 204
13 | AUUUUUUUAUCAGGAUAUUAGUGUUGGUUUGUUUUGUUAGUGAUGUUGAUAUUUGUUUUAUGUAUUUAAGAAGGGAUUGUGAUGU [huupullin] | 473 | 371 | 409 | 381 | 264
14 | UAAUGGUAAGUGAUGUUUACCUGGAACGAUACCAGUCGCCAUGAGGACCCUUGGCAGCGUCACACAGCCUUCUAGUUGUGGUCUU [theeternabot_sameState_KL_Theo_A_46] | 418 | 298 | 347 | 499 | 353
15 | UUUAACGAGUGAUGUUCGAAGAGUAAUGGUGAGGAUAUCGAUUUUUCGAGAAGGCACCUCGAAGUGAUACGAAAGUAUCGCUUCG [FMN A 5] | 171 | 266 | 266 | 269 | 181
16 | GCAGCUCGGGAGUGAUGUUCUCGUAGAGGAAAGGAUAUGUACUUAGACAGAAGGUUCGCAAUUUGCGGUCUUAAGAUAGAAUAAC [theeternabot_sameState_KL_FMN_A_40] | 177 | 126 | 207 | 224 | 152
17 | CUCGAGUGAUGUUCGACGCGUCCGUACGAUACCAGCGUAGACCGUCGCCCUUGGCAGCGUGAUGCAGCCCGAAAGUCCGGUUCCU [theeternabot_sameState_KL_Theo_A_26] | 1160 | 833 | 1430 | 1120 | 1070
18 | CAUAGGAAACUAUGUUUCUCUCUUACUGAAGGAGCGCGUGAAAACGCAGGUAGGUCGCAGAAUUUGAGAGUGAUGUUCUCAUUAA [Ex Arginine A K4 14] | 119 | 211 | 175 | 201 | 127
19 | AGUGAUGUUGAGUUAUGUUAGUGAAGUGAUCGAGGACCGGUACGGCCGCCACUCGAGUGAUGAGUGAGUGAUGUUUGUUUAGUGA [bvbmullin] | 639 | 487 | 857 | 692 | 404
20 | UUAUAUAUAUUAGAUACCAGUUUAAUGGAAACAAAUUAUGUUAUGAGUGAUGUUCAUGUAAGCCCUUGGCAGCUGGUAUGGGUUU [KL-XTheo-B18] | 235 | 305 | 237 | 322 | 207
21 | AAGUUUUAUAAACUCAUGGUUUCGACAGAUACCAGCUUCGAGAGGAGCCCUUGGCAGCUGCAUGAGUGAUGUUCAUGUACGAAGA [KL-XTheoA8] | 377 | 362 | 480 | 416 | 359
22 | AAAAUAAGCCAGUGAUGUUGGUGUCCAGAUACCAGCGACGAAAGUCGCCCUUGGCAGCUGUGGACGUACAAAAUAAGUACGUCCU | 1030 | 760 | 1140 | 957 | 1120

Row | Sequence | apparent KD of K4 kissing-loop reporter (input ligand: FMN 200 uM) [nM] | apparent KD of K4 kissing-loop reporter (input ligand: arginine 13.2 mM) [nM] | apparent KD of K4 kissing-loop reporter (input ligand: none) [nM] | apparent KD of K4 kissing-loop reporter [1] [nM] | apparent KD of K4 kissing-loop reporter [2] [nM]
23 | AUUCUAUGGAGUGAUGUUCCUGUGAUGUCACGAGGACCGGUACGGCCGCCACUCGAUGUAUUGGUUUUUGAAAGAAACAACUGCA [Same State-Tryptophan A] | 566 | 701 | 842 | 773 | 279
24 | UGACAUUGCUCAGAUACCAGACAUGAGCAUCAGCCAUGUGCCAAAUAAACGUACAUAAAUGUCCCUUGGCAGCUGAGCAAUGUCU [TheoBX 11] | 53 | 33.2 | 38.3 | 118 | 64.9
25 | GGACCUCAGUGAUGUUGAGGUAACGCUGAUACCAGUGACUUAAUUCGCCCUUGGCAGCAGUCCACCGAGGUAUCUGAUUAGGUCU [Default title] | 133 | 145 | 149 | 155 | 139
26 | ACCUCACAGUGAUGUUGUGAGCCGAUAGUGAAGGAUAUUGUAAAGUCAAGAAGGUCAUGUCAGUCACAAAACGUUAAGCCUCGCA [theeternabot_exclusion_KL_FMN_A_19] | 275 | 218 | 254 | 266 | 194
27 | CUAGGUAACACAGGAUAUGUCCGAGUGAUGUUCGAGCCUUUCCAUUGACGAAAUUAAUGGUGGGUGACAGAAGGGUGAGUACUGA [Uses] | 457 | 640 | 1090 | 640 | 828
28 | UCGGACCCUGGAGGAUAUGAGUCGAGUGAUGUUCGGCGGUCCAUGCCGAUGCGGCGUUAUGCCCUUUUAGAAGGCCAGGGUCCGA [#2 Exclusion - FMN B Attempt #10 (HarryS)] | 498 | 216 | 277 | 268 | 264
29 | AAAUAUUCGAGUGAUGUUCGAUAAAUAUCAGAGGAUAUGCUUAAAAGCAGAAGGCUGUAUUUCUAUUUGUUAUGUAAUUUUAUAA [JR_SSFMNA_Sub021] | 125 | 160 | 135 | 154 | 91.4
30 | AAUGUGCAGGGAAGGAGCGUAGUCCAGUGAUGUUGGAGUUAAAUACCAGUGAUGUUGGUUAUACAGGUAGGUCGCCCUAAAGCGC [Exclusion Arginine B Gf 5] | 73.5 | 67.7 | 81.3 | 98.3 | 71
31 | UACUUAUUUUUUAACUUAAAUUUUUCAGAAGGAGCGUGAUCAUUCACAGGUAGGUCGCUGAACUAGUGAUGUUAGUUUUAAUUUU [JR_Nu_ExcArginiA_Sub024] | 62.9 | 115 | 63.9 | 104 | 56.5
32 | UGGGUGUAGUGAUGUUAUAUAGAGAGUGAUACCAGUUUAGAGAGGAACCCUUGGCAGCAUAGAAGAGUAUCAUUGGAGGAGGAGG [ExTheophyl.Aw] | 677 | 505 | 696 | 606 | 433
33 | GGAUAGGACAGAGGAUAUGGUAGUGAUGUUACCAAACUGGUUACUUUUGUCAGAAAACUGGCAUUUCCAGAAGGCUGUCCUAUCG [KL-XFMN-B12] | 287 | 71 | 68.6 | 58 | 68.3
34 | AGUUCUUGCCGAAGGAGCGAGGCAGAGUGAUGUUCUGCAGAGGUCGAAAGACCUCAACUGCCUCAGGUAGGUCGCGGCAUGAACA [Omei KL Arginine B Exc A v6] | 291 | 298 | 563 | 469 | 476
35 | GCGUCACGUCGGGAUACCAGAGAAAUGGCAUUAGCCAAUGACGAGUGAUGUUCGUAGGCGCUCCCUUGGCAGCCCACCGGGAGGA [theeternabot_sameState_KL_Theo_B_21] | 351 | 218 | 311 | 340 | 278
36 | CUUAUGGAGUGUCGUACCGGACACUGGGAAGGAGCGCAAUUCUUUGCAGGUAGGUCGCCCAGUGAUGUUGGGUGGCGCUGUCGAA [Xebeor] | 191 | 173 | 181 | 266 | 169
37 | UCCGAGCUUAUUGAUACCAGUUCGGCGAGCUACUAGAGUGAUGUUCUUGUAAGCGUACACAACCCUUGGCAGCAAUAGAGGAGGU [theeternabot_sameState_KL_Theo_B_37] | 157 | 128 | 135 | 130 | 135
38 | UGUGGAGAAUAUGAUACCAGCAGAGAGAGAGAGGAAGUAUAGUGAUGUUAUAUGAGAGAAUGCCCUUGGCAGCAUAAGAAGAAGG [SSTheophylB.C] | 144 | 119 | 140 | 216 | 192
39 | UCGAUGGCCAGCGAUACCAGCCCAGUGAUGUUGGGCACAUGGUUGCGGGAAAUCCCAUUGGGCCCUUGGCAGCGCUUGCAUAGGU [Cezaat] | 197 | 155 | 162 | 219 | 171
40 | ACGACGCAUAGUGAUACCAGCAUUAUAUGAGUGAUGUUCUACCUAAAAUGGUAAUAAUGAUGCCCUUGGCAGCACUAUGCGUCAG [KL-SSTheoB2] | 400 | 453 | 461 | 638 | 283
41 | UGGAUAUAGUGAUGUUAUAUAGAGAUGGAUACCAGCGAAGAGAAUUGCCCUUGGCAGCCGAAAGAAGUAUCAUUAGAGAAGAAUG [ExTheophyl.Ah] | 254 | 213 | 252 | 261 | 186
42 | UGUACCGAGUCAGGAUAUGGUAUACCGGAAACGGACCAGUGAUGUUGGAGGCGAAAGCCAUAAAAUCCAGAAGGGACUUGGUACU [FmnBS 19 #SwitchBubble #StaticStem #DoubleMagnetSystem] | 223 | 569 | 614 | 893 | 411
43 | ACGACUGGAUGAAUAACAUCUAGUCGAGAUCGAGGACCGGUACGGCCGCCACUCGAGCUAACUGCGAGUGAUGUUCGAUAAUAAA [#OpenEnded 2] | 277 | 302 | 253 | 200 | 88.4
